Test in all cases: EMSA
Data set [1] deals with T1, GST-Swi6 (Schizosaccharomyces pombe, UniProt P40381 1-328).
T1 sequence: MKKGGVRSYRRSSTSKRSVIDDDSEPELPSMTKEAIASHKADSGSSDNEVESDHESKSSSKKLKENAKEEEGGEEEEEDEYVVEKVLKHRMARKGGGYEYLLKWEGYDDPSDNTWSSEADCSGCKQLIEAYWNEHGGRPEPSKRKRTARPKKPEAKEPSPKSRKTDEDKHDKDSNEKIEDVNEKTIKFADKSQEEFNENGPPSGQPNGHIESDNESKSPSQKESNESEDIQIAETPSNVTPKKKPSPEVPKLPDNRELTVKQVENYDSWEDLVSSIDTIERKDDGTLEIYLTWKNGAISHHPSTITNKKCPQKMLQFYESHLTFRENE

In another data set the target is T2, GST-Swi6 3K->3A (Schizosaccharomyces pombe, UniProt P40381 1-328, K242A;K243A;K244A).
T2 sequence: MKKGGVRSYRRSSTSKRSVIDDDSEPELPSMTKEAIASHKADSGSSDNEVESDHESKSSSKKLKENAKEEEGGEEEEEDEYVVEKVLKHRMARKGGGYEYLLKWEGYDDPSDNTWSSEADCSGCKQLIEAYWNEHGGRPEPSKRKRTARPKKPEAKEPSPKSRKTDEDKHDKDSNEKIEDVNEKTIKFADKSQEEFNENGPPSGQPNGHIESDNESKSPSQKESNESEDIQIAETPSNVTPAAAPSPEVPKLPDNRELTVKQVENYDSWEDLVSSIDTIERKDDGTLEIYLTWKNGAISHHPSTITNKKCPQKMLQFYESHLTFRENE

In data set [2] the target is T1, GST-Swi6. This is another data set of the same source.
For data set [3], the target named is T1, GST-Swi6. The source holds these as a separate data set.
Data set [4] deals with T1, GST-Swi6. The source holds these as a separate data set.
The target in data set [5] is T1, GST-Swi6. The source holds these as a separate data set.

Results on 4 molecules are retold here after article doi:10.1101/2020.10.21.349050.

Where two headings read alike, the source gives them in different places.

B1: D-Rev RNA (ssRNA)
RNA: UACCGCUUCUCCUUAAUCCA
As for B1, the binding result with GST-Swi6 [1] was “no binding”.

B2: D-For RNA-DNA hybrid (DNA:RNA)
RNA: UGGAUUAAGGAGAAGCGGUA
DNA: TACCGCTTCTCCTTAATCCA
Consider B2, for which the binding result with GST-Swi6 3K->3A is “no binding”. In addition, the figures for the Kd with GST-Swi6 [2], with GST-Swi6 [3] and with GST-Swi6 [4] were 0.08 µM, 0.09 µM and 0.73 µM, respectively.

B3: D-For RNA (ssRNA)
RNA: UGGAUUAAGGAGAAGCGGUA
As to B3, the Kd was found to be 2.45 µM in the data set with GST-Swi6 [2] and 1.79 µM in the data set with GST-Swi6 [4].

B4: E-For RNA (ssRNA)
RNA: ACAAGUGAUAAGAGUAGGUGU
Turning to B4, in the data set with GST-Swi6 [5], binding was put at a Kd of 2.15 ± 0.1 µM.

A word on the Kd: it is the concentration at which binding is half-saturated.
